Test results as given in the RNAGym collection of RNA variant scans (doi:10.7554/elife.90254).

B1: LINE1-mini (parent)
chain: GGCAGAGCUCAACACAGCGUGGCAAAGUGGCUGUGGCUAGACUGCC

Variants of: B1
Experiment: self-cleavage, relative activity (ratio to wild type); higher = more cleavage; in vitro, sequencing; the parent is a self-cleaving ribozyme

Variant | self-cleavage
GGUAGAGCUCAACACAGCGUGGCAAAGUGUCUGUGGCUAGACUGCC [C3U G30U] | 0.5
GGCAGAGAUCAACACAGCGUGGCAAAGUGGCUGUGGUUAGACUGCC [C8A C37U] | 0.17
CGCAGAGCUCAACACAGCGUUGCAAAGUGGCUGUGGCUAGACUGCC [G1C G21U] | 0.17
GGCAGAGCUCAACACAGCGUGGAAAAGUGGCUGUGACUAGACUGCC [C23A G36A] | 0.17
GGCAGAGCUCAACACAGCGUGGCAAAGUGGCUUUGGAUAGACUGCC [G33U C37A] | 0.07
GGCAGAGCUCAACACAGCGUGGCAAAGUGGCUGUGGCUACAUUGCC [G40C C42U] | 0.07
GGCCGAGCUCAACACAGCGUGGCAAAGUGGCUGUGGCUACACUGCC [A4C G40C] | 0.12
GGCAGAGCUCAACACAGCGUUGUAAAGUGGCUGUGGCUAGACUGCC [G21U C23U] | 1.38
GGCAGAGCUCAACACAGCGUGACAAAGCGGCUGUGGCUAGACUGCC [G22A U28C] | 0.51
GGCAGAGCUCAACACUGCGUGGCAAAGUGGCUGUGGCUAGACUGUC [A16U C45U] | 0.11
GGCAUAGCUCAACACAGCGUGGUAAAGUGGCUGUGGCUAGACUGCC [G5U C23U] | 0.12
GGCAGAGCUCAACACAGCGUGGCAAAGUGGCUGUGGCUAUACUACC [G40U G44A] | 0.14
AGCAGAGCACAACACAGCGUGGCAAAGUGGCUGUGGCUAGACUGCC [G1A U9A] | 0.34
GGCAGAGCUCAACACAGCCUGGCAAAGUGGCUGUGGCUAAACUGCC [G19C G40A] | 0.06
GGCAGAGCUCAACACACCGUGGCGAAGUGGCUGUGGCUAGACUGCC [G17C A24G] | 0.71
GGCAGAGCUCAACACAGCGUGGCAAAGUGGGUGUAGCUAGACUGCC [C31G G35A] | 0.04
GGCAGAGCUCAACACAGCGUGGCAAAGUGGCUGUAGCUAGAAUGCC [G35A C42A] | 0.06
GGCAGAGCUCAAGACAGCGUGGCAAAGUGCCUGUGGCUAGACUGCC [C13G G30C] | 0.12
GUCAGAGCUCAACAGAGCGUGGCAAAGUGGCUGUGGCUAGACUGCC [G2U C15G] | 0.02

Variant | self-cleavage
GGCAGAGCUCAACACAGCGUGGCAAAGUGUCUGUGGCUAGAGUGCC [G30U C42G] | 0.05
GGCAGAGCUCAACACAGCGUGGCAAAGUGGCUGUGGCUACAAUGCC [G40C C42A] | 0.07
GGCAGAGCUAAACACAGCGUGGCAAAGUGGCUGUGGCUAGACAGCC [C10A U43A] | 0.01
GGCAGAGCUCAACACAGGGUGGCAAAGUGGCUGUGGCUAGUCUGCC [C18G A41U] | 0.32
GGCAGAGCUCUACACAGCGUGGGAAAGUGGCUGUGGCUAGACUGCC [A11U C23G] | 0.11
GGCAGAGCUAAACCCAGCGUGGCAAAGUGGCUGUGGCUAGACUGCC [C10A A14C] | 0.02
GGCACAGCUCAGCACAGCGUGGCAAAGUGGCUGUGGCUAGACUGCC [G5C A12G] | 0.05
GGCAGAGCUCAACACAGCUUGGCAAAGUGGCUGUGGCCAGACUGCC [G19U U38C] | 0.3
GACAGAGCUCAACACAGCGUGGCAUAGUGGCUGUGGCUAGACUGCC [G2A A25U] | 0.65
GGCAGAGCUCAACACAGCGUGGCGAAGUGGCUAUGGCUAGACUGCC [A24G G33A] | 0.07
GGCAGAGCUCAACACAGCGUGGCAAAGUGGGUGUGUCUAGACUGCC [C31G G36U] | 0.05
GGCAGAGCUCAACAAAGCGUGGCAAAGUGGCUGUGGCUAGAGUGCC [C15A C42G] | 0.04
GGCAGUGCUCAACACAGCGUGGGAAAGUGGCUGUGGCUAGACUGCC [A6U C23G] | 0.46
GGCAGAGCUCAAUACAGCGUGGCAAUGUGGCUGUGGCUAGACUGCC [C13U A26U] | 0.15
GGCAGAGCUCAACACAGCGUGGCAAAGUGGCUGUUGCUAGAGUGCC [G35U C42G] | 0.05
GGCAGGGCUCAACUCAGCGUGGCAAAGUGGCUGUGGCUAGACUGCC [A6G A14U] | 0.05
GGCAGAGCUCAACACUGCGUGGCAAAGUGGCUGUGGCAAGACUGCC [A16U U38A] | 0.1
GGCAGAGCUCAAGACAGCGUGGCAACGUGGCUGUGGCUAGACUGCC [C13G A26C] | 0.27
GGCAGAGCUCAACACAGCGUGGCAAAGUGGCUGUGGCUAGAUUGCU [C42U C46U] | 0.24

Variant | self-cleavage
GGCGGAGCUCAACACAGCGUGGCAAAGUGGCUGUGGCUAGAUUGCC [A4G C42U] | 0.22
GGCAGAGCUCAACACAGCGUCGCAAAGUGGCUGUGGCUAGACAGCC [G21C U43A] | 0.07
CGCAGAGCUCAACACAGCGUGGCAAAGUGGCUGUGGCUAGACUGCC [G1C] | 0.13
GGCACAGCUCAACACAGCGUGGCAAAGUGGCUGUGGGUAGACUGCC [G5C C37G] | 0.05
GGCAGAGCUCACCACAGCGUGGCAAAGUGGCUGUGGCUAGAAUGCC [A12C C42A] | 0.03
GGCAGAGCUGAACACAGCGUGGCAAAGUGGCUGUGGCUAGACAGCC [C10G U43A] | 0.01
GGCAGAGCUCAAAACAGCGUGGCAAAGUGGCUGUGGCUAGACUGCG [C13A C46G] | 0.06
GGCAGAGCUCAACGCAGCGUGGCAAAGUGGCUGUGGCUUGACUGCC [A14G A39U] | 0.37
GGCAGAGCUCAACACAGCGGGGCAUAGUGGCUGUGGCUAGACUGCC [U20G A25U] | 1.21
GGCAGAGCUCAACACGGCGUGGCAAAGUGGCUGUGGCUACACUGCC [A16G G40C] | 0.07
GGCAGAGCUCAACACAGCGGGGCAAAGUGUCUGUGGCUAGACUGCC [U20G G30U] | 0.47
GGCAGAGCUCAACACAGCGUGGCAAAGUGGCUGCGACUAGACUGCC [U34C G36A] | 0.09
GUCAGAGCUCAACACAGCGCGGCAAAGUGGCUGUGGCUAGACUGCC [G2U U20C] | 0.05
GACAGAGCGCAACACAGCGUGGCAAAGUGGCUGUGGCUAGACUGCC [G2A U9G] | 0.25
GGCAGAGCUCAACACAGCCUGGCAAAGUGGCUGUGGCUAGCCUGCC [G19C A41C] | 0.05
GGCAGAGGUCAACACAGCGUGGCAAAGUGGCUGUGGCUAGAAUGCC [C8G C42A] | 0.05
GGCAGAGCUCAACACAGUGUGGCAAAGUGGCUGUGGCGAGACUGCC [C18U U38G] | 0.01
GGCAGUGCUCAACACAGUGUGGCAAAGUGGCUGUGGCUAGACUGCC [A6U C18U] | 0.93
